US20230133141A1 (HONG KONG POLYTECHNIC UNIVERSITY, published 2023)
Non-standard residues stand in square brackets, D forms with d.

T1: full-length ITGA2 (UniProt P17301 30-1181, limits assumed)
T1 sequence (looked up): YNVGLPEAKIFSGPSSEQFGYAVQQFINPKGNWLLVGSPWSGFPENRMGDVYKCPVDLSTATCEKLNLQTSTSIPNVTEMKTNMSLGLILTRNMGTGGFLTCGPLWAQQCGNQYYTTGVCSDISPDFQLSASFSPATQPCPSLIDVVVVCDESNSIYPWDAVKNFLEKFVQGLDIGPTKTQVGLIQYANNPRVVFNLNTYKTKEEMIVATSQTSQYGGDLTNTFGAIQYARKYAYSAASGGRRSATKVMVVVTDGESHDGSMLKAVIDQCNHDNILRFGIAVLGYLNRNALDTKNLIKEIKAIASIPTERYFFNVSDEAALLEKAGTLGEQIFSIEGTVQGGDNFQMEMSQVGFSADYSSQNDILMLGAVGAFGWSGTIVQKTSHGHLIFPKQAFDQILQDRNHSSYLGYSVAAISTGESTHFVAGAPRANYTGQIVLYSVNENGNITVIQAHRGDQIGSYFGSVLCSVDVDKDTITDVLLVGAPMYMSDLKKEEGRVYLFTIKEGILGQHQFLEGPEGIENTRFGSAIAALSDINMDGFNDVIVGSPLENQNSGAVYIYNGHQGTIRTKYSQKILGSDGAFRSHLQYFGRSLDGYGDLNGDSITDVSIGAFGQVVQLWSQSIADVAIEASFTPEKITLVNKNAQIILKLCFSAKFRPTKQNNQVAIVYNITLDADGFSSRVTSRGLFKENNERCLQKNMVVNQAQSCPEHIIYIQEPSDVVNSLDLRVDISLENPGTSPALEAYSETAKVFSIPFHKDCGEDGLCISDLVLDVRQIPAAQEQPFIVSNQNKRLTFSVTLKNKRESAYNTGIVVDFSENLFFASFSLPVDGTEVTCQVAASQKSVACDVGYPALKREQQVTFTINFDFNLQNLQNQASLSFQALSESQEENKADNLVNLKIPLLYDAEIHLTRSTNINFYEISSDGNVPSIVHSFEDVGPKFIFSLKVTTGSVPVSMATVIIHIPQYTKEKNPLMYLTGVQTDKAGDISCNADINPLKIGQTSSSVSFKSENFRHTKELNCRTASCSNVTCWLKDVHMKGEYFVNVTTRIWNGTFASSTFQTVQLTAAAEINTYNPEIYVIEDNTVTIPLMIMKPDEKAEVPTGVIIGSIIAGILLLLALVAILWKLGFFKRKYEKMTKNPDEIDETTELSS

T2: KLGFFKR motif-deficient (dm) ITGA2 (UniProt P17301 30-1181)
T2 construct: whole, on cells; Deletion of the seven residues KLGFFKR; also called A2dm; motif-deficient ITGA2
T2 sequence (looked up): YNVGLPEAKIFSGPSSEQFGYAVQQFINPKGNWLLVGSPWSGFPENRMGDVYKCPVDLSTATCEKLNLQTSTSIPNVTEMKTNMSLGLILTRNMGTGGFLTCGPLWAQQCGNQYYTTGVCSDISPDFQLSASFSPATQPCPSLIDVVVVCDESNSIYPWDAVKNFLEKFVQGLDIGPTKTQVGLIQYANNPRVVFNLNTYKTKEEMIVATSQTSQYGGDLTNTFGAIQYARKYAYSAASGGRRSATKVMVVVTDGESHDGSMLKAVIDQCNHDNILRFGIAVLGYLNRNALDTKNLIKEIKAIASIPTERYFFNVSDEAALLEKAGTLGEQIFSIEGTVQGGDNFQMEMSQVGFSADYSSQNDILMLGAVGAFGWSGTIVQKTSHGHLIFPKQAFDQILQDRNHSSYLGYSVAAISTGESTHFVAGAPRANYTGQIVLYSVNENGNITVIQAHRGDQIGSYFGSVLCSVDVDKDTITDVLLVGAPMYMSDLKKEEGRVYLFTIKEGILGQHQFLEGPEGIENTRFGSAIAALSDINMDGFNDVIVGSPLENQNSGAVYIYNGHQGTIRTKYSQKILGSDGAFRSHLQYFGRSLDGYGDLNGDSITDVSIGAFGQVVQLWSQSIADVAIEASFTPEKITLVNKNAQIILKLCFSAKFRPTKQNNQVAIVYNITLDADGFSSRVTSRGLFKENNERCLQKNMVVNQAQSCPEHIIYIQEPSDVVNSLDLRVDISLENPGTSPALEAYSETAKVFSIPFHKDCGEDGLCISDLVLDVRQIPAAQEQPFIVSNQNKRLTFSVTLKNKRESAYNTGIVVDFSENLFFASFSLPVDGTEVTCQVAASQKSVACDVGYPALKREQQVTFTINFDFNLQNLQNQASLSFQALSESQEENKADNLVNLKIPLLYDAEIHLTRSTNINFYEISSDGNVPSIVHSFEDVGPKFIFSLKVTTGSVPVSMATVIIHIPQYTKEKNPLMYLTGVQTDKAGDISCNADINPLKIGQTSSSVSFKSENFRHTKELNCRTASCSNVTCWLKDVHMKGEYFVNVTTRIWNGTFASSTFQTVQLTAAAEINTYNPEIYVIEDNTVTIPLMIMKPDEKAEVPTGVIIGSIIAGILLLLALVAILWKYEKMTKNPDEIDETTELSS

B1: DRI-TAT-SP peptide (D-retro-inverso form of TAT-SP) (peptide)
peptide: Ac-[dR][dE][dP][dV][dC][dL][dC][dR]G[dI][dV][dW][dR][dQ][dV][dA][dP][dP][dF]G[dL][dE][dS][dR][dR][dR][dQ][dR][dR][dK][dK][dR]-NH2
modifications: cysteine pairing not given here
B2: calreticulin (CRT) (other, UniProt P27797 18-417, looked up)
chain: EPAVYFKEQFLDGDGWTSRWIESKHKSDFGKFVLSSGKFYGDEEKDKGLQTSQDARFYALSASFEPFSNKGQTLVVQFTVKHEQNIDCGGGYVKLFPNSLDQTDMHGDSEYNIMFGPDICGPGTKKVHVIFNYKGKNVLINKDIRCKDDEFTHLYTLIVRPDNTYEVKIDNSQVESGSLEDDWDFLPPKKIKDPDASKPEDWDERAKIDDPTDSKPEDWDKPEHIPDPDAKKPEDWDEEMDGEWEPPVIQNPEYKGEWKPRQIDNPDYKGTWIHPEIDNPEYSPDPSIYAYDNFGVLGLDLWQVKSGTIFDNFLITNDEAYAEEFGNETWGVTKAAEKQMKDKQDEEQRLKEEEEDKKRKEEEEAEDKEDDEDKDEDEEDEEDKEEDEEEDVPGQAKDEL
notes: Endogenous protein in cell lysate; pulled down with anti-CRT antibody

How the values were obtained:
[1] = biological target: T1, full-length ITGA2; test: cell-based or functional assay
[2] = biological target: T2, KLGFFKR motif-deficient (dm) ITGA2; test: co-immunoprecipitation with anti-CRT antibody, Western blot
Description: (§1) After incubation, agarose beads were centrifuged and washed by PBS. Immunoprecipitated proteins were collected by treating the beads with 0.2 M glycine and subjected to Western Blotting (WB) analysis.
(§2) Total protein was extracted with RIPA buffer supplied with protease inhibitor (Roche), resolved in 10% SDS-PAGE and transferred onto Immobilon-P PVDF membrane (Millipore). Membranes were blocked with 5% non-fat dry milk in Tris-buffered saline with 0.1% Tween (TBST) for 2 hours, then were incubated overnight with corresponding antibodies at 4° C., followed by incubation with horseradish peroxidase-conjugated goat anti-mouse IgG (Santa Cruz Biotechnology) or goat anti-rabbit IgG (Santa Cruz Biotechnology) as appropriate, for 2 hours at room temperature in TBST. Antibody binding was detected with Pierce ECL Western Blotting Substrate (Thermo Scientific) and images were visualized with Azure C600 imaging system (Azure Biosystems).

[3] = biological target: T1, full-length ITGA2; test: co-immunoprecipitation with anti-CRT antibody from cell lysate, Western blot
Description: as §1, §2

| Binder | EC50 of reversing chemoresistance in BCSCs in the presence of DOX (MTS assay) [1] | binding result [2] | binding result [3] |
| --- | --- | --- | --- |
| B1 | 2300 nM | – | – |
| B2 | – | no binding | binds |
